Data published in patent publication US20140087995A1 (published 2014).
Numbered stars: 1 amine (or outer) side, 2 acyl side, 3 side chain; on linkers, the order of the positions; unused ones are H or OH. Bridge positions count the residues as written; N and C are the ends. Side chains are listed from the residue outwards. Ends that are not written are not given here. * marks the point of attachment. C20 diacid = O=C(O)CCCCCCCCCCCCCCCCCCC(=O)*; γGlu = O=C(O)[C@H](CCC(=O)[*:2])N[*:1]

B1: N^ε1-[(4S)-4-carboxy-4-(19-carboxynonadecanoylamino)butanoyl]-[His14,Arg17,Pro21,Pro27,Pro34]-h-amylin (peptide)
peptide: K([γGlu-C20 diacid])CNTATCATQRLAHFLRHSSPNFGAIPSSTNVGPNTY-NH2
modifications: disulfide 2-7; N-terminus assumed
SMILES: CC[C@H](C)[C@H](NC(=O)[C@H](C)NC(=O)CNC(=O)[C@H](Cc1ccccc1)NC(=O)[C@H](CC(N)=O)NC(=O)[C@@H]1CCCN1C(=O)[C@H](CO)NC(=O)[C@H](CO)NC(=O)[C@H](Cc1c[nH]cn1)NC(=O)[C@H](CCCNC(=N)N)NC(=O)[C@H](CC(C)C)NC(=O)[C@H](Cc1ccccc1)NC(=O)[C@H](Cc1c[nH]cn1)NC(=O)[C@H](C)NC(=O)[C@H](CC(C)C)NC(=O)[C@H](CCCNC(=N)N)NC(=O)[C@H](CCC(N)=O)NC(=O)[C@@H](NC(=O)[C@H](C)NC(=O)[C@@H]1CSSC[C@H](NC(=O)[C@@H](N)CCCCNC(=O)CC[C@H](NC(=O)CCCCCCCCCCCCCCCCCCC(=O)O)C(=O)O)C(=O)N[C@@H](CC(N)=O)C(=O)N[C@@H]([C@@H](C)O)C(=O)N[C@@H](C)C(=O)N[C@@H]([C@@H](C)O)C(=O)N1)[C@@H](C)O)C(=O)N1CCC[C@H]1C(=O)N[C@@H](CO)C(=O)N[C@@H](CO)C(=O)N[C@H](C(=O)N[C@@H](CC(N)=O)C(=O)N[C@H](C(=O)NCC(=O)N1CCC[C@H]1C(=O)N[C@@H](CC(N)=O)C(=O)N[C@H](C(=O)N[C@@H](Cc1ccc(O)cc1)C(N)=O)[C@@H](C)O)C(C)C)[C@@H](C)O
notes: also called compound 67
B2: N^α1-[2-[2-[2-[[2-[2-[2-[[(4S)-4-carboxy-4-(19-carboxynonadecanoylamino)butanoyl]amino]ethoxy]ethoxy]acetyl]amino]ethoxy]ethoxy]acetyl]-[Arg17,Pro21,Pro27]-h-am … (peptide)
peptide: KCNTATCATQRLANFLRHSSPNFGAIPSSTNVGSNTY
modifications: alpha-amino group of N-terminal Lys1 acylated with C20 diacid via linker gGlu-2xOEG; disulfide bridge Cys2-Cys7 and C-terminal amide as in human amylin
notes: also called compound 24

Tests used:
[1] = biological target: T1, human calcitonin receptor (human, UniProt P30988 25-474); experiment: cell-based or functional assay
T1 sequence (looked up): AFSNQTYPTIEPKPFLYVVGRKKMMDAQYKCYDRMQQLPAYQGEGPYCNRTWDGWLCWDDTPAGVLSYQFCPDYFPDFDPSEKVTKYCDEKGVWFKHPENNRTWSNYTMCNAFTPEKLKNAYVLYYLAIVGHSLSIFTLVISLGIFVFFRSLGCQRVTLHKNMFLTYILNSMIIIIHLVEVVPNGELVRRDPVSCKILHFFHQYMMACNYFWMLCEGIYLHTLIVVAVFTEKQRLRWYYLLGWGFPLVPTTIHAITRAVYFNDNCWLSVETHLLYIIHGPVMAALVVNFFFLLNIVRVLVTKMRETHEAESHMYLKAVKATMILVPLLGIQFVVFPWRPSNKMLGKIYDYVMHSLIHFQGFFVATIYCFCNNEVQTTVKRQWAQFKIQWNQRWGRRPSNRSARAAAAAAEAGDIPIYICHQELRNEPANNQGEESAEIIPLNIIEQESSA

[2] = biological target: T2, human amylin receptor (amylin 3(a) receptor: human calcitonin receptor co-expressed with RAMP-3) (human, UniProt P30988 25-474; O60896 24-148, limits assumed); experiment: cell-based or functional assay
T2 sequence (looked up) 1: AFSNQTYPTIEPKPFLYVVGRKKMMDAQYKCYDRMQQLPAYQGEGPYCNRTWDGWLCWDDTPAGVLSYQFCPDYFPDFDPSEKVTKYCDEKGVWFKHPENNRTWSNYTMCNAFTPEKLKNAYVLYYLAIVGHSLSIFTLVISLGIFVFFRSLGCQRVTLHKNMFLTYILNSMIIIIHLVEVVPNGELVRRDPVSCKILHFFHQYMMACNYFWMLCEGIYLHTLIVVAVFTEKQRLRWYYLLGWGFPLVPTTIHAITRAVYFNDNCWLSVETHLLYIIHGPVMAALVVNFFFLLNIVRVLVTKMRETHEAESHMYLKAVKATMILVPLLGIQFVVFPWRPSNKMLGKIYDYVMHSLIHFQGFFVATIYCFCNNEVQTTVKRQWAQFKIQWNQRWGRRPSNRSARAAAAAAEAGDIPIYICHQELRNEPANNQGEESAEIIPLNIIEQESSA
T2 sequence (looked up) 2: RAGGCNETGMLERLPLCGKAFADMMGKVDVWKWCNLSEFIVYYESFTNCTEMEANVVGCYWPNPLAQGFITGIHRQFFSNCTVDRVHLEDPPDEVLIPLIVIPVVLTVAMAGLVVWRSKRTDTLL

[3] = biological target: T2, human amylin receptor (amylin 3(a) …); experiment: SPA competition binding on membranes of Amylin 3(a)/CRE-luc BHK cells, displacement of 125I-rat amylin (Assay V)
Procedure: (§1) The binding assay was performed using scintillation proximity assay (SPA) beads (RPNQ0001) from PerkinElmer and cell membranes from the Amylin 3(a)/CRE-luc cells (as described in Assay (II)) were used. Membranes were prepared in the following way; the cells were rinsed with PBS and incubated with Versene for approximately 5 min before harvesting. The cells were flushed with PBS and the cell-suspension was centrifuged for 5 min at 1000 rpm. Cells were homogenized (ultrathurrax) in a buffer containing 20 mM Na-HEPES and 10 mM EDTA (pH 7.4) and centrifuged at 20.000 rpm for 15 min. The resulting pellet was resuspended, homogenized and centrifuged (20.000 rpm, 15 min) in a buffer containing 20 mM Na-HEPES and 0.1 mM EDTA (pH 7.4, buffer 2). The resulting pellet was resuspended in buffer 2 and protein concentration was measured (BCA protein Assay, Pierce). The homogenate was kept cold during the whole procedure. The membranes were kept at −80° C. until use. The assay was performed in a 384 well Optiplate (PerkinElmer) in a total volume of 40 ul. Membranes were mixed with SPA beads. Final concentration of membranes 35 ng/μL final and SPA beads was 0.05 mg/well. […] Samples were analyzed on TopCounter™ (Packard). The IC₅₀ was calculated using (one site binding competition analysis) GraphPad Prism5 as a measure of receptor affinity.

[4] = biological target: T3, human amylin 3(a) receptor (human calcitonin receptor co-expressed with RAMP-3) (human, UniProt P30988 25-474; O60896 24-148, limits assumed); experiment: SPA competition vs 125I-rat amylin, membranes of BHK Amylin 3(a)/CRE-luc cells (Assay V)
T3 construct: whole, on cells; Whole BHK amylin 3(a)-receptor/CRE-luc cells in the functional assay (Assay II a); also called hAmylin-R; hAmylinR
T3 sequence (looked up) 1: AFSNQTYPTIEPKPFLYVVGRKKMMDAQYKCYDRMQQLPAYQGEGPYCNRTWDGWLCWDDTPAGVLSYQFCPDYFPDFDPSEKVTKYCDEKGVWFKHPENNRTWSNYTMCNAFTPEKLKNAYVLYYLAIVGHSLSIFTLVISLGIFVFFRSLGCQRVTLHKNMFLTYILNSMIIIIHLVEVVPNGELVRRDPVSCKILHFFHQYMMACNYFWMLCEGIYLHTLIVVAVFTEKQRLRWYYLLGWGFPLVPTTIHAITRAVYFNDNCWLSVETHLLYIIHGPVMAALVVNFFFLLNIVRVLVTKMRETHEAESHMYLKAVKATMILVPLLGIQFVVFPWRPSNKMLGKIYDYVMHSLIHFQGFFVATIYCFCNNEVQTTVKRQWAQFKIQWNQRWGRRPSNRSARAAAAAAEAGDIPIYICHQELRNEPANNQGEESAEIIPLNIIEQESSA
T3 sequence (looked up) 2: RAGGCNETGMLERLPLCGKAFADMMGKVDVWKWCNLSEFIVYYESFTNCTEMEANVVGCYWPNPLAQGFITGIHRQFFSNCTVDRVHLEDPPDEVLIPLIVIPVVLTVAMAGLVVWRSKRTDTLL
Procedure: as §1

[5] = biological target: T3, human amylin 3(a) receptor (human …); experiment: cell-based or functional assay

Binder	hCTR funct. EC50 [1] [nM]	hAmylin-R funct. EC50 [2] [nM]	IC50 [3] [nM]	IC50 [4] [nM]	Ratio hCT/hAmylin funct. (hCTR EC50 over hAmylin-R EC50) [5]	hAmylin-R funct. EC50 (pM) [5] [pM]
B1	0.354	0.069	0.09	–	–	–
B2	–	–	–	1.14	23.1	433
